Positions count from the first letter of the chain named. Names and notes keep the numbering of the source.
B1: N355D (protein)
chain: MQLRNPELHLGCALALRFLALVSWDIPGARALDNGLARTPTMGWLHWERFMCNLDCQEEPDSCISEKLFMEMAELMVSEGWKDAGYEYLCIDDCWMAPQRDSEGRLQADPQRFPHGIRQLANYVHSKGLKLGIYADVGNKTCAGFPGSFGYYDIDAQTFADWGVDLLKFDGCYCDSLENLADGYKHMSLALNRTGRSIVYSCEWPLYMWPFQKPNYTEIRQYCNHWRNFADIDDSWKSIKSILDWTSFNQERIVDVAGPGGWNDPDMLVIGNFGLSWNQQVTQMALWAIMAAPLFMSNDLRHISPQAKALLQDKDVIAINQDPLGKQGYQLRQGDNFEVWERPLSGLAWAVAMIDRQEIGGPRSYTIAVASLGKGVACNPACFITQLLPVKRKLGFYEWTSRLRSHINPTGTVLLQLENTMQMSLKDLL
B2: R356L (protein)
chain: B1 chain with D355N, R356L
B3: P362H (protein)
chain: B1 chain with D355N, P362H
B4: N355Y (protein)
chain: B1 chain with D355Y
B5: I359N (protein)
chain: B1 chain with D355N, I359N
B6: I359L (protein)
chain: B1 chain with D355N, I359L
B7: P362R (protein)
chain: B1 chain with D355N, P362R
B8: I359F (protein)
chain: B1 chain with D355N, I359F
B9: Q357E (protein)
chain: B1 chain with D355N, Q357E
B10: S364C (protein)
chain: B1 chain with D355N, S364C
B11: N355H (protein)
chain: B1 chain with D355H
B12: P362S (protein)
chain: B1 chain with D355N, P362S
B13: R363L (protein)
chain: B1 chain with D355N, R363L
B14: I359S (protein)
chain: B1 chain with D355N, I359S
B15: Y365D (protein)
chain: B1 chain with D355N, Y365D
B16: N355S (protein)
chain: B1 chain with D355S
B17: R363G (protein)
chain: B1 chain with D355N, R363G
B18: P362A (protein)
chain: B1 chain with D355N, P362A
B19: R363S (protein)
chain: B1 chain with D355N, R363S
B20: I359V (protein)
chain: B1 chain with D355N, I359V
B21: S364P (protein)
chain: B1 chain with D355N, S364P

System: mutant form of α-Gal A expressed in HEK-293 cells
Experiment: HEK assay (GLP HEK / Migalastat Amenability Assay): α-Gal A activity in lysates of transiently transfected HEK-293 cells incubated with or without 10 μM migalastat
Type: cell-based, human
Conditions: 10 μM migalastat versus baseline
In short: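 Activity reported as 4-MU released (nmol/mg/hr), mean±SEM, from lysates of transiently transfected HEK-293 cells expressing mutant α-Gal A, cultured with or without 10 μM migalastat.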

Molecule	Absolute increase (% WT)	Relative increase
B1	16.7	3.3
B2	43.7	2.8
B3	33.4	3.9
B4	26.6	2.8
B5	12.5	1.6
B6	25.6	1.7
B7	23.9	1.8
B8	14.1	2.1
B9	41.5	1.9
B10	40.0	1.3
B11	9.9	3.5
B12	53.8	1.8
B13	62.2	3.5
B14	29.6	1.3
B15	19.7	1.6
B16	30.8	2.2
B17	72.6	2.7
B18	40.1	1.4
B19	86.6	2.7
B20	31.6	1.6
B21	63.1	1.4

Same assay, conditions: absence of migalastat; percentage of baseline wild-type α-Gal A activity; mean ± SEM

Molecule	Baseline α-Gal A activity (% WT)
B1	7.3 ± 0.4
B2	24.4 ± 1
B3	11.2 ± 1
B4	15.2 ± 1
B5	20.8 ± 1.2
B6	39.1 ± 1.8
B7	25 ± 3.1
B8	13 ± 1
B9	42.8 ± 2.1
B10	127 ± 10.6
B11	4 ± 0.2
B12	71.2 ± 7.7
B13	23.2 ± 1.9
B14	101.6 ± 6.3
B15	31.3 ± 2.7
B16	25.9 ± 1.6
B17	41.8 ± 5.1
B18	100.8 ± 9.5
B19	50.1 ± 5.9
B20	51.5 ± 3.4
B21	143.2 ± 13.7

Same assay, conditions: lysates of HEK-293 cells transiently transfected with the mutant form, incubated 5 days in absence of migalastat; mean ± SEM

Molecule	Baseline α-Gal A activity [nmol/mg/h]
B1	3366 ± 241
B2	10680 ± 518
B3	3713 ± 377
B4	5994 ± 461
B5	10862 ± 655
B6	16254 ± 909
B7	8745 ± 1176
B8	6138 ± 568
B9	15264 ± 877
B10	41263 ± 2389
B11	1822 ± 81
B12	25234 ± 2794
B13	8123 ± 869
B14	37737 ± 2594
B15	9119 ± 1027
B16	11397 ± 817
B17	13990 ± 1613
B18	35322 ± 3087
B19	16400 ± 1695
B20	20990 ± 1174
B21	48193 ± 4573

Same assay, conditions: lysates of HEK-293 cells transiently transfected with the mutant form, incubated 5 days with 10 μM migalastat; mean ± SEM

Molecule	10 μM migalastat α-Gal A activity [nmol/mg/h]
B1	11004 ± 832
B2	29548 ± 2017
B3	14620 ± 531
B4	16930 ± 1745
B5	17332 ± 879
B6	26791 ± 1713
B7	15971 ± 1019
B8	13144 ± 1091
B9	28922 ± 1194
B10	53912 ± 3067
B11	6399 ± 338
B12	45209 ± 4138
B13	27997 ± 2485
B14	48055 ± 2727
B15	14664 ± 1311
B16	24820 ± 1396
B17	37837 ± 2998
B18	49809 ± 2721
B19	44621 ± 3266
B20	34265 ± 1528
B21	66731 ± 4698

Same assay, conditions: with 10 μM migalastat, 5 days; percentage of baseline wild-type α-Gal A activity; mean ± SEM

Molecule	10 μM migalastat α-Gal A activity (% WT)
B1	24 ± 1.6
B2	68.1 ± 4.6
B3	44.6 ± 1.9
B4	41.8 ± 3.3
B5	33.3 ± 1.8
B6	64.7 ± 3.9
B7	48.9 ± 4.1
B8	27 ± 1.6
B9	84.3 ± 6.3
B10	167 ± 14.8
B11	13.9 ± 0.6
B12	125 ± 9
B13	85.4 ± 9.5
B14	131.2 ± 8.4
B15	51 ± 3.5
B16	56.7 ± 2.8
B17	114.4 ± 10.7
B18	140.9 ± 8.5
B19	136.7 ± 12.4
B20	83.1 ± 3.3
B21	206.4 ± 20

Reference: patent US11833164B2, “Methods of treating Fabry disease in patients having a mutation in the GLA gene” (Amicus Therapeutics, Inc., priority 2019, dated 2023)
